Target: commercially-prepared stable A-beta42 Oligomers (SynAging) (human)
Assay: SPR; antibody covalently immobilized, stable A-beta42 oligomers at 1 microM

Chain of commercially-prepared stable A-beta42 Oligomers (SynAging) (human) (peptide, as listed by the source): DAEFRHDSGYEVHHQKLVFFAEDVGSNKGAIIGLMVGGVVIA

binding response units (BRU), mean: 2.5 BRU
Substance: negative control IgG1 (antibody)
